Assay results: US20140274782A1, “AFFINITY REAGENTS AND METHODS FOR DETECTION, PURIFICATION, AND PROTEOMIC ANALYSIS OF METHYLATED PROTEINS” (The Board of Trustees of the Leland Stanford Junior …, priority 2013, published 2014)

B1: SRP72 (protein, UniProt O76094 2-671, looked up)
Signal recognition particle …: ASGGSGGVSVPALWSEVNRYGQNGDFTRALKTVNKILQINKDDVTALHCKVVCLIQNGSFKEALNVINTHTKVLANNSLSFEKAYCEYRLNRIENALKTIESANQQTDKLKELYGQVLYRLERYDECLAVYRDLVRNSQDDYDEERKTNLSAVVAAQSNWEKVVPENLGLQEGTHELCYNTACALIGQGQLNQAMKILQKAEDLCRRSLSEDTDGTEEDPQAELAIIHGQMAYILQLQGRTEEALQLYNQIIKLKPTDVGLLAVIANNIITINKDQNVFDSKKKVKLTNAEGVEFKLSKKQLQAIEFNKALLAMYTNQAEQCRKISASLQSQSPEHLLPVLIQAAQLCREKQHTKAIELLQEFSDQHPENAAEIKLTMAQLKISQGNISKACLILRSIEELKHKPGMVSALVTMYSHEEDIDSAIEVFTQAIQWYQNHQPKSPAHLSLIREAANFKLKYGRKKEAISDLQQLWKQNPKDIHTLAQLISAYSLVDPEKAKALSKHLPSSDSMSLKVDVEALENSAGATYIRKKGGKVTGDSQPKEQGQGDLKKKKKKKKGKLPKNYDPKVTPDPERWLPMRERSYYRGRKKGKKKDQIGKGTQGATAGASSELDASKTVSSPPTSPRPGSAATVSASTSNIIPPRHQKPAGAPATKKKQQQKKKKGGKGGW
B2: CPSF2 (protein, UniProt Q9P2I0 1-782, looked up)
Cleavage and polyadenylation …: MTSIIKLTTLSGVQEESALCYLLQVDEFRFLLDCGWDEHFSMDIIDSLRKHVHQIDAVLLSHPDPLHLGALPYAVGKLGLNCAIYATIPVYKMGQMFMYDLYQSRHNTEDFTLFTLDDVDAAFDKIQQLKFSQIVNLKGKGHGLSITPLPAGHMIGGTIWKIVKDGEEEIVYAVDFNHKREIHLNGCSLEMLSRPSLLITDSFNATYVQPRRKQRDEQLLTNVLETLRGDGNVLIAVDTAGRVLELAQLLDQIWRTKDAGLGVYSLALLNNVSYNVVEFSKSQVEWMSDKLMRCFEDKRNNPFQFRHLSLCHGLSDLARVPSPKVVLASQPDLECGFSRDLFIQWCQDPKNSIILTYRTTPGTLARFLIDNPSEKITEIELRKRVKLEGKELEEYLEKEKLKKEAAKKLEQSKEADIDSSDESDIEEDIDQPSAHKTKHDLMMKGEGSRKGSFFKQAKKSYPMFPAPEERIKWDEYGEIIKPEDFLVPELQATEEEKSKLESGLTNGDEPMDQDLSDVPTKCISTTESIEIKARVTYIDYEGRSDGDSIKKIINQMKPRQLIIVHGPPEASQDLAECCRAFGGKDIKVYMPKLHETVDATSETHIYQVRLKDSLVSSLQFCKAKDAELAWIDGVLDMRVSKVDTGVILEEGELKDDGEDSEMQVEAPSDSSVIAQQKAMKSLFGDDEKETGEESEIIPTLEPLPPHEVPGHQSVFMNEPRLSDFKQVLLREGIQAEFVGGVLVCNNQVAVRRTETGRIGLEGCLCQDFYRIRDLLYEQYAIV
B3: FUS (protein, UniProt P35637 1-526, looked up)
RNA-binding protein FUS: MASNDYTQQATQSYGAYPTQPGQGYSQQSSQPYGQQSYSGYSQSTDTSGYGQSSYSSYGQSQNTGYGTQSTPQGYGSTGGYGSSQSSQSSYGQQSSYPGYGQQPAPSSTSGSYGSSSQSSSYGQPQSGSYSQQPSYGGQQQSYGQQQSYNPPQGYGQQNQYNSSSGGGGGGGGGGNYGQDQSSMSSGGGSGGGYGNQDQSGGGGSGGYGQQDRGGRGRGGSGGGGGGGGGGYNRSSGGYEPRGRGGGRGGRGGMGGSDRGGFNKFGGPRDQGSRHDSEQDNSDNNTIFVQGLGENVTIESVADYFKQIGIIKTNKKTGQPMINLYTDRETGKLKGEATVSFDDPPSAKAAIDWFDGKEFSGNPIKVSFATRRADFNRGGGNGRGGRGRGGPMGRGGYGGGGSGGGGRGGFPSGGGGGGGQQRAGDWKCPNPTCENMNFSWRNECNQCKAPKPDGPGGGPGGSHMGGNYGDDRRGGRGGYDRGGYRGRGGDRGGFRGGRGGGDRGGFGPGKMDSRGEHRQDRRERPY
B4: GNB1L (protein, UniProt Q9BYB4 1-327, looked up)
Guanine nucleotide-binding …: MTAPCPPPPPDPQFVLRGTQSPVHALHFCEGAQAQGRPLLFSGSQSGLVHIWSLQTRRAVTTLDGHGGQCVTWLQTLPQGRQLLSQGRDLKLCLWDLAEGRSAVVDSVCLESVGFCRSSILAGGQPRWTLAVPGRGSDEVQILEMPSKTSVCALKPKADAKLGMPMCLRLWQADCSSRPLLLAGYEDGSVVLWDVSEQKVCSRIACHEEPVMDLDFDSQKARGISGSAGKALAVWSLDWQQALQVRGTHELTNPGIAEVTIRPDRKILATAGWDHRIRVFHWRTMQPLAVLAFHSAAVQCVAFTADGLLAAGSKDQRISLWSLYPRA

System: 3×MBT domain of L3MBTL1
Test: Triple SILAC pull-down, 3xMBT/3xMBTD355N ratio (cytoplasmic, nuclear and chromatin fractions of 293T cells);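 also: proteins quantified with MaxQuant, requiring at least two unique peptides and quantification in both label directions, normalized to the mean of proteins from a digested loading control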
Format: binding, human
Conditions: SILAC ratio, pull-down 3xMBT vs 3xMBTD355N; experiment with UNC0638 in heavy SILAC media

| Molecule | 3xMBT/D355N UNC Heavy |
| --- | --- |
| B1 | 1.68 log base 2 |
| B2 | 1.85 log base 2 |
| B3 | 2.17 log base 2 |
| B4 | 2.24 log base 2 |

Same assay, conditions: SILAC ratio, pull-down 3xMBT vs 3xMBTD355N; experiment with UNC0638 in light SILAC media

| Molecule | 3xMBT/D355N UNC Light |
| --- | --- |
| B1 | 2.90 log base 2 |
| B2 | 4.20 log base 2 |
| B3 | 2.10 log base 2 |
| B4 | 2.60 log base 2 |

Target: T1, G9a and GLP (Homo sapiens, UniProt Q96KQ7+Q9H9B1)
T1 sequence (Q96KQ7 2-1210 limits assumed): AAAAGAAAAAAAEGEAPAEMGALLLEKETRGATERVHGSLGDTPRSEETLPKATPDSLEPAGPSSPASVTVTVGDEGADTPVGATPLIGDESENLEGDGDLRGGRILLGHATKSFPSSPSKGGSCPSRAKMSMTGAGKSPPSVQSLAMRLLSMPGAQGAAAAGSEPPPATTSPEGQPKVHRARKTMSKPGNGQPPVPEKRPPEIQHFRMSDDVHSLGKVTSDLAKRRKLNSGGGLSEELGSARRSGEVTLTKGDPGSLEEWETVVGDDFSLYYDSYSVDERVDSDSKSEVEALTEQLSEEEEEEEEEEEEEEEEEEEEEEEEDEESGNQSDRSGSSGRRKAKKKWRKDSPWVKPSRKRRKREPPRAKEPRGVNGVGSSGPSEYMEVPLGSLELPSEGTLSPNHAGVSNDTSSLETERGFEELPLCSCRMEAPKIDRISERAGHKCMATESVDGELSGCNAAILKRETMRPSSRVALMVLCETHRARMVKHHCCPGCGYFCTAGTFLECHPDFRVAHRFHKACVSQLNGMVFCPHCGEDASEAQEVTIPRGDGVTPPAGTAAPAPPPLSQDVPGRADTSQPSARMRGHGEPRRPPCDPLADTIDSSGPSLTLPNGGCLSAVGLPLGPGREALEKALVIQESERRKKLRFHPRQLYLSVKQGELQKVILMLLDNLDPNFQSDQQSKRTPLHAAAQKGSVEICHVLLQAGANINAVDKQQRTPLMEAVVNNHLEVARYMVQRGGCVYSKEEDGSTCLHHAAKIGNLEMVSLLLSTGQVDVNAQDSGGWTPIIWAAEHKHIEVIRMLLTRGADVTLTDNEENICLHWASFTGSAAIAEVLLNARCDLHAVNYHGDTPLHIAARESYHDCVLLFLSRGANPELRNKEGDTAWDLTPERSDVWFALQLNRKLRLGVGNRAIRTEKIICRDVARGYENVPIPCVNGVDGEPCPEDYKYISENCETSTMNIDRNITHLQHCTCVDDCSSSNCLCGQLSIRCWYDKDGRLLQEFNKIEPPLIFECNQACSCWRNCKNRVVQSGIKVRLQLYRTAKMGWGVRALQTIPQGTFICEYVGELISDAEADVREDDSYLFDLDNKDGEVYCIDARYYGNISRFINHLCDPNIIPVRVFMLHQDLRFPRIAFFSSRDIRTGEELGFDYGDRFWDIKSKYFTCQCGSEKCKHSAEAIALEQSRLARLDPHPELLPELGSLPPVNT
T1 sequence (Q9H9B1 2-1298 limits assumed): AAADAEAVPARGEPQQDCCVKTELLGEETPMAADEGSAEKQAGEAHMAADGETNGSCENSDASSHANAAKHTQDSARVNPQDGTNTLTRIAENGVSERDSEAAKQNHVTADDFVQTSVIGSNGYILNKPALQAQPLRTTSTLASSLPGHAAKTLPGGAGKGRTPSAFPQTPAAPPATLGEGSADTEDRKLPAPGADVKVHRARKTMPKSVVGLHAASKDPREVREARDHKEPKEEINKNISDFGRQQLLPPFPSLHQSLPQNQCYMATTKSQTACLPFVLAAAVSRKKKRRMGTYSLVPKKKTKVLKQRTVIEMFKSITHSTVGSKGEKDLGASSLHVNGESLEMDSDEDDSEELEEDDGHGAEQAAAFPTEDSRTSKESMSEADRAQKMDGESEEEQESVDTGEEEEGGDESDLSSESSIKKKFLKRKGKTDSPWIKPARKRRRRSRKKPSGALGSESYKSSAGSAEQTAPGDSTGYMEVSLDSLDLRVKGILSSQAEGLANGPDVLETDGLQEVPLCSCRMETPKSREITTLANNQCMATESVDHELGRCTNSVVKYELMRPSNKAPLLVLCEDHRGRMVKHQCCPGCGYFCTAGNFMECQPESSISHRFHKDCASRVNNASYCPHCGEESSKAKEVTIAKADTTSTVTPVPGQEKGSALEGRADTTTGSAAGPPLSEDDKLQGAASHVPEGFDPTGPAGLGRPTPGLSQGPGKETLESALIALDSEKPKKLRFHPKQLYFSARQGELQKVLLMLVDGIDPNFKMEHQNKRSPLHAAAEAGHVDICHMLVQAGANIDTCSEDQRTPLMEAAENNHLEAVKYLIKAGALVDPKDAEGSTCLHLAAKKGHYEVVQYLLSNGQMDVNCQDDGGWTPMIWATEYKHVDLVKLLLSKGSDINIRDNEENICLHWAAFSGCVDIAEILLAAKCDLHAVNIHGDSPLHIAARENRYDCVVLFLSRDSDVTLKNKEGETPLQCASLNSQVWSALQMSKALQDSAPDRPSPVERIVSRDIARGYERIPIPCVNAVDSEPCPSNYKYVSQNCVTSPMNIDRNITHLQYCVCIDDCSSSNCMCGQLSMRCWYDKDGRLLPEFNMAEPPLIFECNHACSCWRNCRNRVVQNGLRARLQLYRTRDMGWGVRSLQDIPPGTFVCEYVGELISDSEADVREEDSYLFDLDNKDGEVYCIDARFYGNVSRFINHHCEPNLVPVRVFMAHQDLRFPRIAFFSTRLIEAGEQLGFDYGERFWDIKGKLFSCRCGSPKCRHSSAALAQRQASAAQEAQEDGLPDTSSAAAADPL
Test: Triple SILAC pull-down after UNC0638 treatment of 293T cells, DMSO/UNC0638 ratio of protein captured by 3×MBT;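 also: mass spectrometry (Q-Exactive) SILAC quantitation, DMSO/UNC0638 ratio computed after subtracting 3×MBTD355N mutant pull-down background, only proteins with at least twofold 3×MBT over mutant signal considered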
Format: cell-based
Set-up: endogenous in cells; host or cells: HEK 293T
Conditions: SILAC ratio DMSO/UNC0638 of protein pulled down with 3xMBT; UNC0638 in heavy SILAC media

| Molecule | Relative to UNC0638 UNC Heavy |
| --- | --- |
| B1 | 0.27 log base 2 |
| B2 | 0.15 log base 2 |
| B3 | 0.05 log base 2 |
| B4 | 0.25 log base 2 |

Same assay, conditions: SILAC ratio DMSO/UNC0638 of protein pulled down with 3xMBT; UNC0638 in light SILAC media

| Molecule | Relative to UNC0638 UNC Light |
| --- | --- |
| B1 | 0.10 log base 2 |
| B2 | 3.16 log base 2 |
| B3 | 0.34 log base 2 |
| B4 | 0.12 log base 2 |

Same assay, conditions: average of UNC Light and UNC Heavy experiments

| Molecule | Relative to UNC0638 Average |
| --- | --- |
| B1 | 0.19 log base 2 |
| B2 | 1.65 log base 2 |
| B3 | 0.19 log base 2 |
| B4 | 0.19 log base 2 |

Same assay, conditions: reduced association with 3xMBT after UNC0638 treatment

| Molecule | Candidate G9a/GLP target |
| --- | --- |
| B2 | ✓ |
